This note sets out measurements from patent publication US20140112931A1.

In assay [1] the target is human HER3-Fc protein (R&D system) (human) (UniProt P21860). As to the kind of experiment: ELISA, HER3-Fc coated at 250 ng/ml.
The target is the same in assay [2]. Briefly: ELISA towards a 250 ng/ml coating solution of HER3 receptor, purified antibody. For orientation: An ELISA detects its analyte on a solid surface through an enzyme-linked reagent.
Assay [3] addresses HER3 receptor (soluble analyte of the BIACORE analysis) (human) (UniProt P21860). Briefly: SPR, BIACORE 3000, 25 °C; antibody captured by anti-mouse polyclonal on CM5, HER3 receptor injected; bivalent analyte model. A general note: In SPR one partner is held on a chip, and binding of the other changes the refractive index at the surface.

B1: murine anti-HER3 monoclonal antibody 9F7-F11 (antibody, from another filing, V domains shown)
VH: EVKLVESGGGLVQPGGSLKLSCAASGFTFSSYTMSWVRQTPEKRLEWVAYISDGGGVTYYPDTIKGRFTISRDNAKNTLYLQMSSLKSEDTAMYYCARDRYGLFAYWGQGTLVTVSA
VL: DIVMTQSQKFMSTSVGDRVSITCKASQNVGIAVAWYQQKPGQSPKLLIYSASNRYTGVPDRFTGSGSGTDFTLTISNMQSEDLADYFCQQYSNYPYTFGGGTKLEIK
Broadly, the EC50 is the concentration at which the effect is half-maximal. High values mean a less potent agent, low ones a more potent agent. As a reminder, the koff is the rate constant with which the complex falls apart. The low end stands for a long-lived complex, the high end for a short-lived complex. As a reminder, the kon is a measure of how fast the partners come together. A lower kon goes with slower complex formation. On to B1, for which, in assay [1], the EC50 was below 1 ng/mL. Besides, the Ab titer after purification (Ab concentration showing an absorbance of 1 by ELISA) in assay [2] was determined as 400 pg/mL. In assay [3], this molecule yielded a Kd of 4.4 nM, a koff of 0.00024 s⁻¹ and a kon of 54000 M⁻¹ s⁻¹.
